{
  "source": "the RNAGym collection of RNA variant scans (doi:10.7554/elife.80360)",
  "parents": {"B1": {"name": "CPEB3 Ribozyme (parent)", "chain": "GGGGGCCACAGCAGAAGCGUUCACGUCGCGGCCCCUGUCAGAUUCUGGUGAAUCUGCGAAUUCUGCUGU"}},
  "data": [
    {"variants_of": "B1", "test": "self-cleavage, relative activity (ratio to wild type); higher = more cleavage; co-transcriptional", "values": [
      {"variant": "G19A C54U", "self-cleavage": 0.134},
      {"variant": "G19A C57A", "self-cleavage": 0.133},
      {"variant": "G19A C57G", "self-cleavage": 0.137},
      {"variant": "G19A C57U", "self-cleavage": 0.178},
      {"variant": "G19A C63A", "self-cleavage": 0.0882},
      {"variant": "G19A C63G", "self-cleavage": 0.152},
      {"variant": "G19A C66A", "self-cleavage": 0.145},
      {"variant": "G19A C66G", "self-cleavage": 0.146},
      {"variant": "G19A C66U", "self-cleavage": 0.162},
      {"variant": "G19A G25A", "self-cleavage": 0.0763},
      {"variant": "G19A G25C", "self-cleavage": 0.151},
      {"variant": "G19A G25U", "self-cleavage": 0.164},
      {"variant": "G19A G28A", "self-cleavage": 0.152},
      {"variant": "G19A G28C", "self-cleavage": 0.216},
      {"variant": "G19A G28U", "self-cleavage": 0.132},
      {"variant": "G19A G30A", "self-cleavage": 0.144},
      {"variant": "G19A G30C", "self-cleavage": 0.166},
      {"variant": "G19A G30U", "self-cleavage": 0.147},
      {"variant": "G19A G31C", "self-cleavage": 0.143},
      {"variant": "G19A G31U", "self-cleavage": 0.146},
      {"variant": "G19A G37U", "self-cleavage": 0.127},
      {"variant": "G19A G41A", "self-cleavage": 0.153},
      {"variant": "G19A G41C", "self-cleavage": 0.187},
      {"variant": "G19A G41U", "self-cleavage": 0.142},
      {"variant": "G19A G47C", "self-cleavage": 0.25},
      {"variant": "G19A G48A", "self-cleavage": 0.144},
      {"variant": "G19A G48U", "self-cleavage": 0.227},
      {"variant": "G19A G50A", "self-cleavage": 0.197},
      {"variant": "G19A G50C", "self-cleavage": 0.204},
      {"variant": "G19A G56A", "self-cleavage": 0.104},
      {"variant": "G19A G56C", "self-cleavage": 0.0715},
      {"variant": "G19A G58C", "self-cleavage": 0.168},
      {"variant": "G19A G58U", "self-cleavage": 0.194},
      {"variant": "G19A G65A", "self-cleavage": 0.0987},
      {"variant": "G19A G65C", "self-cleavage": 0.127},
      {"variant": "G19A G65U", "self-cleavage": 0.159},
      {"variant": "G19A G68U", "self-cleavage": 0.232},
      {"variant": "G19A U20G", "self-cleavage": 0.111},
      {"variant": "G19A U26A", "self-cleavage": 0.19},
      {"variant": "G19A U36A", "self-cleavage": 0.0999},
      {"variant": "G19A U36G", "self-cleavage": 0.165},
      {"variant": "G19A U38A", "self-cleavage": 0.165},
      {"variant": "G19A U38C", "self-cleavage": 0.16},
      {"variant": "G19A U43G", "self-cleavage": 0.245},
      {"variant": "G19A U44A", "self-cleavage": 0.172},
      {"variant": "G19A U44G", "self-cleavage": 0.158},
      {"variant": "G19A U46C", "self-cleavage": 0.103},
      {"variant": "G19A U46G", "self-cleavage": 0.151},
      {"variant": "G19A U49A", "self-cleavage": 0.2},
      {"variant": "G19A U49C", "self-cleavage": 0.163},
      {"variant": "G19A U49G", "self-cleavage": 0.181},
      {"variant": "G19A U53A", "self-cleavage": 0.174},
      {"variant": "G19A U55A", "self-cleavage": 0.185},
      {"variant": "G19A U55C", "self-cleavage": 0.218},
      {"variant": "G19A U55G", "self-cleavage": 0.099},
      {"variant": "G19A U61A", "self-cleavage": 0.16},
      {"variant": "G19A U61C", "self-cleavage": 0.164},
      {"variant": "G19A U62A", "self-cleavage": 0.204},
      {"variant": "G19A U62G", "self-cleavage": 0.169},
      {"variant": "G19A U64C", "self-cleavage": 0.159},
      {"variant": "G19A U67C", "self-cleavage": 0.177},
      {"variant": "G19A U67G", "self-cleavage": 0.205},
      {"variant": "G19A U69A", "self-cleavage": 0.184},
      {"variant": "G19C", "self-cleavage": 0.154},
      {"variant": "G19C A23C", "self-cleavage": 0.181},
      {"variant": "G19C A23U", "self-cleavage": 0.119},
      {"variant": "G19C A40G", "self-cleavage": 0.194},
      {"variant": "G19C A40U", "self-cleavage": 0.0999},
      {"variant": "G19C A51C", "self-cleavage": 0.122},
      {"variant": "G19C A52C", "self-cleavage": 0.195},
      {"variant": "G19C A52G", "self-cleavage": 0.134},
      {"variant": "G19C A52U", "self-cleavage": 0.189},
      {"variant": "G19C A59G", "self-cleavage": 0.175},
      {"variant": "G19C A60C", "self-cleavage": 0.15},
      {"variant": "G19C C22A", "self-cleavage": 0.0962},
      {"variant": "G19C C22G", "self-cleavage": 0.156},
      {"variant": "G19C C27G", "self-cleavage": 0.961},
      {"variant": "G19C C27U", "self-cleavage": 0.116},
      {"variant": "G19C C29A", "self-cleavage": 0.164},
      {"variant": "G19C C29G", "self-cleavage": 0.1},
      {"variant": "G19C C32A", "self-cleavage": 0.146},
      {"variant": "G19C C32U", "self-cleavage": 0.198},
      {"variant": "G19C C33G", "self-cleavage": 0.142},
      {"variant": "G19C C33U", "self-cleavage": 0.181}
    ]}
  ]
}
